# Laboratory results published in US20060263802A1 (CRUCELL HOLLAND B V, published 2006).
# B1: human monoclonal antibody CRJA (antibody, V domains shown)
# VH: EVQLLESGGGLVQPGGSLRLSCAASGFTFSNYAMSWVRQAPGKGLEWVSAISASGHSTYLADSVKGRFTISRDNSKNTLYLQMNSLRAEDTAVYYCAKDREVTMIVVLNGGFDYWGQGTRVTVSS
# VL: EIVLTQSPATLSLSPGERATLACRASQTASRYLAWYQQKPGQAPRLLIYDTSNRATGIPARFSGSGSGTDFTLSISSLEPEDFAVYYCQQRFNWPWTFGQGTKVEFK
# Tests used:
# Assay in all cases: PEPSCAN ELISA, looped peptide, antibody 10 µg/ml
# [1] = target: looped/cyclic peptide … (rabies virus strain ERA)
# [2] = target: looped/cyclic peptide … (rabies virus strain ERA); remark: listed apart in the source
# [3] = target: looped/cyclic peptide … (rabies virus strain ERA); remark: listed apart in the source
# [4] = target: looped/cyclic peptide … (rabies virus strain ERA); remark: listed apart in the source
# [5] = target: looped/cyclic peptide … (rabies virus strain ERA); remark: listed apart in the source
# [6] = target: looped/cyclic peptide … (rabies virus strain ERA); remark: listed apart in the source
# [7] = target: looped/cyclic peptide … (rabies virus strain ERA); remark: listed apart in the source
# [8] = target: looped/cyclic peptide … (rabies virus strain ERA); remark: listed apart in the source
# [9] = target: looped/cyclic peptide … (rabies virus strain ERA); remark: listed apart in the source
# [10] = target: looped/cyclic peptide … (rabies virus strain ERA); remark: listed apart in the source
# [11] = target: looped/cyclic peptide … (rabies virus strain ERA); remark: listed apart in the source
# [12] = target: looped/cyclic peptide … (rabies virus strain ERA); remark: listed apart in the source
# [13] = target: looped/cyclic peptide … (rabies virus strain ERA); remark: listed apart in the source
# [14] = target: looped/cyclic peptide … (rabies virus strain ERA); remark: listed apart in the source
# [15] = target: looped/cyclic peptide … (rabies virus strain ERA); remark: listed apart in the source
# [16] = target: looped/cyclic peptide … (rabies virus strain ERA); remark: listed apart in the source
# [17] = target: looped/cyclic peptide … (rabies virus strain ERA); remark: listed apart in the source
# [18] = target: looped/cyclic peptide … (rabies virus strain ERA); remark: listed apart in the source
# [19] = target: looped/cyclic peptide … (rabies virus strain ERA); remark: listed apart in the source
# [20] = target: looped/cyclic peptide … (rabies virus strain ERA); remark: listed apart in the source
# [21] = target: looped/cyclic peptide … (rabies virus strain ERA); remark: listed apart in the source
# [22] = target: looped/cyclic peptide … (rabies virus strain ERA); remark: listed apart in the source
# [23] = target: looped/cyclic peptide … (rabies virus strain ERA); remark: listed apart in the source
# [24] = target: looped/cyclic peptide … (rabies virus strain ERA); remark: listed apart in the source
# [25] = target: looped/cyclic peptide … (rabies virus strain ERA); remark: listed apart in the source
# [26] = target: looped/cyclic peptide … (rabies virus strain ERA); remark: listed apart in the source
# [27] = target: looped/cyclic peptide … (rabies virus strain ERA); remark: listed apart in the source
# [28] = target: looped/cyclic peptide … (rabies virus strain ERA); remark: listed apart in the source
# [29] = target: looped/cyclic peptide … (rabies virus strain ERA); remark: listed apart in the source
# [30] = target: looped/cyclic peptide … (rabies virus strain ERA); remark: listed apart in the source
# [31] = target: looped/cyclic peptide … (rabies virus strain ERA); remark: listed apart in the source
# [32] = target: looped/cyclic peptide … (rabies virus strain ERA); remark: listed apart in the source
# [33] = target: looped/cyclic peptide … (rabies virus strain ERA); remark: listed apart in the source
# [34] = target: looped/cyclic peptide … (rabies virus strain ERA); remark: listed apart in the source
# [35] = target: looped/cyclic peptide … (rabies virus strain ERA); remark: listed apart in the source
# [36] = target: looped/cyclic peptide … (rabies virus strain ERA); remark: listed apart in the source
# [37] = target: looped/cyclic peptide … (rabies virus strain ERA); remark: listed apart in the source
# [38] = target: looped/cyclic peptide … (rabies virus strain ERA); remark: listed apart in the source
# [39] = target: looped/cyclic peptide … (rabies virus strain ERA); remark: listed apart in the source
# [40] = target: looped/cyclic peptide … (rabies virus strain ERA); remark: listed apart in the source
# [41] = target: looped/cyclic peptide … (rabies virus strain ERA); remark: listed apart in the source
# [42] = target: looped/cyclic peptide … (rabies virus strain ERA); remark: listed apart in the source
# [43] = target: looped/cyclic peptide … (rabies virus strain ERA); remark: listed apart in the source
# [44] = target: looped/cyclic peptide […] (rabies virus strain ERA)
# [45] = target: looped/cyclic peptide … (rabies virus strain ERA); remark: listed apart in the source
# [46] = target: looped/cyclic peptide … (rabies virus strain ERA); remark: listed apart in the source
# [47] = target: looped/cyclic peptide … (rabies virus strain ERA); remark: listed apart in the source
# [48] = target: looped/cyclic peptide … (rabies virus strain ERA); remark: listed apart in the source
# [49] = target: looped/cyclic peptide … (rabies virus strain ERA); remark: listed apart in the source
# [50] = target: looped/cyclic peptide … (rabies virus strain ERA); remark: listed apart in the source
# [51] = target: looped/cyclic peptide … (rabies virus strain ERA); remark: listed apart in the source
# [52] = target: looped/cyclic peptide … (rabies virus strain ERA); remark: listed apart in the source
# [53] = target: looped/cyclic peptide … (rabies virus strain ERA); remark: listed apart in the source
# [54] = target: looped/cyclic peptide DIHHLSCPNNLVVED (rabies virus strain ERA)
# [55] = target: looped/cyclic peptide … (rabies virus strain ERA); remark: listed apart in the source
# [56] = target: looped/cyclic peptide … (rabies virus strain ERA); remark: listed apart in the source
# [57] = target: looped/cyclic peptide … (rabies virus strain ERA); remark: listed apart in the source
# [58] = target: looped/cyclic peptide … (rabies virus strain ERA); remark: listed apart in the source
# [59] = target: looped/cyclic peptide … (rabies virus strain ERA); remark: listed apart in the source
# [60] = target: looped/cyclic peptide … (rabies virus strain ERA); remark: listed apart in the source
binder,measurement,setting,value
B1,OD value,[1],71 OD
same,OD value,[2],72 OD
same,OD value,[3],98 OD
same,OD value,[4],93 OD
same,OD value,[5],90 OD
same,OD value,[6],38 OD
same,OD value,[7],71 OD
same,OD value,[8],58 OD
same,OD value,[9],90 OD
same,OD value,[10],82 OD
same,OD value,[11],84 OD
same,OD value,[12],100 OD
same,OD value,[13],93 OD
same,OD value,[14],65 OD
same,OD value,[15],84 OD
same,OD value,[16],92 OD
same,OD value,[17],89 OD
same,OD value,[18],90 OD
same,OD value,[19],45 OD
same,OD value,[20],58 OD
same,OD value,[21],71 OD
same,OD value,[22],78 OD
same,OD value,[23],86 OD
same,OD value,[24],88 OD
same,OD value,[25],92 OD
same,OD value,[26],100 OD
same,OD value,[27],104 OD
same,OD value,[28],108 OD
same,OD value,[29],88 OD
same,OD value,[30],83 OD
same,OD value,[31],118 OD
same,OD value,[32],87 OD
same,OD value,[33],117 OD
same,OD value,[34],100 OD
same,OD value,[35],46 OD
same,OD value,[36],51 OD
same,OD value,[37],72 OD
same,OD value,[38],62 OD
same,OD value,[39],83 OD
same,OD value,[40],89 OD
same,OD value,[41],92 OD
same,OD value,[42],92 OD
same,OD value,[43],98 OD
same,OD value,[44],186 OD
same,OD value,[45],113 OD
same,OD value,[46],86 OD
same,OD value,[47],123 OD
same,OD value,[48],117 OD
same,OD value,[49],113 OD
same,OD value,[50],151 OD
same,OD value,[51],92 OD
same,OD value,[52],38 OD
same,OD value,[53],55 OD
same,OD value,[54],62 OD
same,OD value,[55],96 OD
same,OD value,[56],92 OD
same,OD value,[57],84 OD
same,OD value,[58],96 OD
same,OD value,[59],88 OD
same,OD value,[60],74 OD
